In US20150344583A1 (Amgen, published 2015):
Where a chain is given by its changes, count along the chain named. In names and notes the source's numbering stands. Like-named read-outs stand apart in the source and are kept apart here.

B1: 2A1-PEG4-Mal-DM4 (antibody, V domains shown)
VH: EVQLVESGGGLVKPGRSLRLSCTASGFTFGDYALSWFRQAPGKGLEWVGVSRSKAYGGTTDYAASVKGRFTISRDDSKSFAYLQMNSLKTEDTAVYYCCSSGYSSGWTPFDYWGQGTLVTVSS
VL: not shown
modifications: PEG4-Mal-DM4 conjugated, sites not stated
B2: 2A1-MCC-DM1 (antibody, V domains shown)
VH: B1 VH
VL: not shown
modifications: MCC-DM1 conjugated, sites not stated
B3: 1E1-PEG4-Mal-DM4 (antibody, V domains shown)
VH: QVQLVQSGAEVKKPGASVKVSCKASGYTFTGHYIHWVRQAPGQGLEWMGWIYPNSGGTNYAQKFQGRVTMTRDTSISTAYMELSRLRSDDSAVYYCAREGMVTGDYYYYRMDVWGQGTTVIVSS
VL: QPVLTQPPSASASLGASVTLTCSLSSGYSNYKVDWYQQRPGKGPRFVMRVGIGGIVGSKGDGIPDRFSVLGSGLNRYLTIKNIQEEDESDFHCGADHGSGNNFVYVFGTGTKVTVLG
B4: 1E1-MCC-DM1 (antibody, V domains shown)
VH: B3 VH
VL: B3 VL
B5: 32B5-MCC-DM1 (antibody, V domains shown)
VH: EVQLLESGGALVQPGGSLRLSCAASGFTFSSYAMNWVRQAPGKGLEWVSAISVGGDTYYADSVKGRFTISRDNSKNTLYLHVNSLSAEDSAVYYCAKDQVTLVRGVWYYYGLDVWGQGTTVTVSS
VL: VIVLIQSPLSLPVTPGEPASISCRSSQSLLHSNGNNYLDWYLQKPGQSPHLLISLGSNRTSGVPDRFSGSGSGTDFTLKISRVEAEDVGFYYCMQALQPPRRFGQGTKLEIKR
notes: MCC-DM1 conjugate of '32B5'
B6: 29C12-MCC-DM1 (antibody, V domains shown)
VH: B5 VH with H81Q, V82M, S86R, S90T, L102M
VL: B5 VL with V1D, L4M, F90V
B7: 2A1-S108R (antibody, V domains shown)
VH: B1 VH with S100R
VL: not shown
B8: 2A1CV5-MCC-DM1 (Ab-1 ADC) (antibody, human IgG1, lambda, V domains shown)
VH: B1 VH with R16G, T23A, F80T, C99A
VL: not shown
modifications: MCC-DM1 conjugated, sites not stated
B9: Ab-2 (29C12_mut) (antibody, human IgG1, kappa, V domains shown)
VH: B5 VH with A10G, H81Q, V82M, S86R, S90T, L102M
VL: B5 VL with V1D, L4M, I5T, N58Q, F90V
notes: Human IgG1; also called 29C12 CV2; 29C12cv2
B10: Ab-3 (32B5_mut) (antibody, human IgG1, kappa, V domains shown)
VH: B5 VH with A10G, H81Q, S86R
VL: B5 VL with V1D, I5T, N58Q, F90V
notes: Human IgG1; also called 32B5 CV2; 32B5cv2
B11: 35D2 (antibody, V domains shown)
VH: B5 VH with D56G, S86R, S90T, L102M
VL: B5 VL
notes: IgG2 or IgG4, purified from hybridoma supernatant; also called 35D2.1; Ab-15
B12: 30E1 (antibody, V domains shown)
VH: EVQLLESGGGLVQPGGSLRLSCAASGFTFSSHAMSWVRQAPGKGLEWVSAISGGDGNTYYADSVKGRFAISRDNSKNVVYLQMNSLRAEDTAVYFCAKDLVGVVAGYYYYFGMDVWGQGTTVTVSS
VL: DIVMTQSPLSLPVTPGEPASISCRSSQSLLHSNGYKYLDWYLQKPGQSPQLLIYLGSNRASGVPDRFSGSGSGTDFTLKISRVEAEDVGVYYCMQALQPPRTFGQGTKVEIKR
notes: IgG2 or IgG4, purified from hybridoma supernatant; also called 30E1.1; Ab-9
B13: 32H3 (antibody, V domains shown)
VH: EVQLLESGGGLVQPGGSLRLSCAASGFTFSSYAMSWVRQAPGKGLKWVSAISGGAGNTYYADSVKGRFTISRDISKSTVYLQMTSLRAEDTAIYYCAKDGVGTTGGYFYYHGMDVWGQGTTVTVSS
VL: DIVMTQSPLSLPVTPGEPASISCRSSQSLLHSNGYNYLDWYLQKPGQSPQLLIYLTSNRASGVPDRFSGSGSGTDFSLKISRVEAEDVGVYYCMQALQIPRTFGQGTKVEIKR
notes: IgG2 or IgG4, purified from hybridoma supernatant; also called 32H3.1; Ab-12
B14: 32B5 (antibody, V domains shown)
VH: B5 VH
VL: B5 VL
notes: IgG2 or IgG4 as purified from hybridoma (32B5.1); later converted to human IgG1; an engineered version may be meant there; also called 32B5.1; Ab-10
B15: 29C12 (antibody, V domains shown)
VH: B5 VH with H81Q, V82M, S86R, S90T, L102M
VL: B5 VL with V1D, L4M, F90V
notes: IgG2 or IgG4 as purified from hybridoma (29C12.1); later converted to human IgG1; an engineered version may be meant there; also called 29C12.1; Ab-8
B16: 37B2 (antibody, V domains shown)
VH: B5 VH with S31N
VL: B5 VL
notes: IgG2 or IgG4, purified from hybridoma supernatant; also called 37B2.1; Ab-16

Key:
[1] = molecular target: T1, human BCMA (huBCMA) on cells (human, UniProt Q02223 1-184); experiment: cell-based or functional assay
T1 chain: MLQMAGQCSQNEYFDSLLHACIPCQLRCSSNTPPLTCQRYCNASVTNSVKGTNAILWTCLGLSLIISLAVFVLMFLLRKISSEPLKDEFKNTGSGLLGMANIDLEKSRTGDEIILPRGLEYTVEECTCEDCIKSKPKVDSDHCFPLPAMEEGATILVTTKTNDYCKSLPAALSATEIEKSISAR

[2] = molecular target: T1, human BCMA (huBCMA) on cells; experiment: FACS on H929 cells (native BCMA, relative binding, indirect)
[3] = molecular target: T1, human BCMA (huBCMA) on cells; experiment: cell-based or functional assay
[4] = molecular target: T1, human BCMA (huBCMA) on cells; experiment: FACS, H929 cells
[5] = molecular target: T2, rhuBCMA fusion protein (6xHis::Sumo::huBCMA(aa 5-51)::GGS::G3::Avi) (human); experiment: Biacore, antibody captured, rhu BCMA analyte
T2 construct: the preparation also held C-terminally clipped forms; also called Sumo-BCMA; SumoBCMA
T2 chain: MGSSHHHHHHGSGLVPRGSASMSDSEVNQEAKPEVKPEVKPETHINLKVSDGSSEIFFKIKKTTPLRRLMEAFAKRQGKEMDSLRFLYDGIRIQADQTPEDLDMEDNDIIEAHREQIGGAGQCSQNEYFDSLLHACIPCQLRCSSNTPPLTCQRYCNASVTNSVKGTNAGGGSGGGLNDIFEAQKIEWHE

[6] = molecular target: T3, rrat BCMA fusion protein (GS::6xHis::Sumo::ratBCMA(aa 2-49)::GGS::G3::Avi) (rat); experiment: Biacore, antibody captured, rrat BCMA analyte
T3 chain: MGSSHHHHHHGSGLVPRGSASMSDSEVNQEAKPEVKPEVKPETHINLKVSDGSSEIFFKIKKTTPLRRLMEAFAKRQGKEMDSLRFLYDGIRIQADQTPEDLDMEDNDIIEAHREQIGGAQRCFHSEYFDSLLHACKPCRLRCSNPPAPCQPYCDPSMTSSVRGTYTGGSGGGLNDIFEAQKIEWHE

[7] = molecular target: T2, rhuBCMA fusion protein …; experiment: Biacore, antibody captured, rhu BCMA analyte
[8] = molecular target: T3, rrat BCMA fusion protein …; experiment: Biacore, antibody captured, rrat BCMA analyte
[9] = molecular target: T4, cynomolgus (Macaca fascicularis) BCMA on cells (cynomolgus (Macaca fascicularis), UniProt Q02223 1-184 (human entry)); experiment: FACS, Cyno BCMA
T4 construct: also called cyno BCMA; cynomolgus BCMA
T4 sequence (Q02223 other isoform, or with tags, fused parts or gaps): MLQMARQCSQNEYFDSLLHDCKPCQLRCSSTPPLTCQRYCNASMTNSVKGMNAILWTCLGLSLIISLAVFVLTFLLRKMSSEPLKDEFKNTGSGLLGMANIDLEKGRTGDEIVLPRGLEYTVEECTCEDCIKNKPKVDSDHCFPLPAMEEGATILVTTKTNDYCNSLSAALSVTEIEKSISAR

[10] = molecular target: T1, human BCMA (huBCMA) on cells; experiment: FACS, hu BCMA
[11] = molecular target: T4, cynomolgus (Macaca fascicularis) BCMA …; experiment: CynoBCMA O/N FACS
[12] = molecular target: T5, TACI on transiently transfected cells (human, UniProt O14836 1-293); experiment: FACS, hu TACI
T5 construct: whole, on cells; also called huTACI
T5 sequence (looked up): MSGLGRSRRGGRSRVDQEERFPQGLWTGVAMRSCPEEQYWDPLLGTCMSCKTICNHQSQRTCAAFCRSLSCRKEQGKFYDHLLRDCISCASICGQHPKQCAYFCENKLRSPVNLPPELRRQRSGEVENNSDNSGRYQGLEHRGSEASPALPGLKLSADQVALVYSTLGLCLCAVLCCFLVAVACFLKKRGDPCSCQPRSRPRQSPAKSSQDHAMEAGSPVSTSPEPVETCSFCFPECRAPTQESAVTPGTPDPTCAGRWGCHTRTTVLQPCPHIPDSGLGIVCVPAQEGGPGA

Row | Binder | MFI [9] | MFI [10] | MFI [11] | MFI [12] | other results
1 | B1 |  |  |  |  | IC50, CellTiter-Glo cell viability, H929 cells, 96 h [1]: 2200 pM
2 | B2 |  |  |  |  | IC50 (nM DM1), cell viability, EW36 [1]: 30 nM DM1; IC50 (nM DM1), cell viability, H929 [1]: 0.6 nM DM1; IC50 (nM DM1), cell viability, MM1R [1]: 3.9 nM DM1; IC50 (nM DM1), cell viability, MM1S [1]: 1 nM DM1; IC50 (nM DM1), cell viability, RAMOS [1]: 32 nM DM1; IC50 (nM DM1), cell viability, U266 [1]: 0.8 nM DM1; IC50, CellTiter-Glo cell viability, H929 cells, 96 h [1]: 2400 pM
3 | B3 |  |  |  |  | IC50, CellTiter-Glo cell viability, H929 cells, 96 h [1]: 680 pM
4 | B4 |  |  |  |  | IC50, CellTiter-Glo cell viability, H929 cells, 96 h [1]: 630 pM
5 | B5 |  |  |  |  | IC50, H929 cell growth (CellTiter-Glo, 96 h) [1]: 506 pM; EC50 [2]: 7000 pM
6 | B6 |  |  |  |  | IC50, H929 cell growth (CellTiter-Glo, 96 h) [1]: 390 pM
7 | B7 |  |  |  |  | ADCC EC50 [3]: 0.043 µg/mL; EC50 (read off the curve) [4]: ~0.2 µg/mL
8 | B8 |  |  |  |  | IC50 in an H929 tumor cell growth inhibition assay (antibody concentration) [1]: ~78 pM
9 | B9 |  |  |  |  | Kd [5]: 1110 pM; Kd [6]: 2350 pM
10 | B10 |  |  |  |  | Kd [7]: 750 pM; Kd [8]: 2070 pM
11 | B11 | 198000 MFI | 129000 MFI | 152 MFI | 506 MFI | 
12 | B12 | 78500 MFI | 109000 MFI | 130 MFI | 555 MFI | 
13 | B13 | 51200 MFI | 97700 MFI | 122 MFI | 1360 MFI | 
14 | B14 | 257000 MFI | 137000 MFI | 108 MFI | 274 MFI | 
15 | B15 | 97300 MFI | 82600 MFI | 110 MFI | 256 MFI | 
16 | B16 | 136000 MFI | 83700 MFI | 104 MFI | 1040 MFI | 
